To fix the notation:
B1: Ferredoxin--NADP reductase (Anabaena sp. (strain PCC 7119)), P21890 (parent)
chain: MSNQGAFDGAANVESGSRVFVYEVVGMRQNEETDQTNYPIRKSGSVFIRVPYNRMNQEMQRITRLGGKIVTIQTVSALQQLNGRTTIATVTDASSEIAKSEGNGKATPVKTDSGAKAFAKPPAEEQLKKKDNKGNTMTQAKAKHADVPVNLYRPNAPFIGKVISNEPLVKEGGIGIVQHIKFDLTGGNLKYIEGQSIGIIPPGVDKNGKPEKLRLYSIASTRHGDDVDDKTISLCVRQLEYKHPESGETVYGVCSTYLTHIEPGSEVKITGPVGKEMLLPDDPEANVIMLATGTGIAPMRTYLWRMFKDAERAANPEYQFKGFSWLVFGVPTTPNILYKEELEEIQQKYPDNFRLTYAISREQKNPQGGRMYIQDRVAEHADELWQLIKNQKTHTYICGLRGMEEGIDAALSAAAAKEGVTWSDYQKDLKKAGRWHVETY
B2: Ferredoxin--NADP reductase (Anabaena sp. (strain PCC 7119)), P21890 (parent)
chain: B1 chain
partner: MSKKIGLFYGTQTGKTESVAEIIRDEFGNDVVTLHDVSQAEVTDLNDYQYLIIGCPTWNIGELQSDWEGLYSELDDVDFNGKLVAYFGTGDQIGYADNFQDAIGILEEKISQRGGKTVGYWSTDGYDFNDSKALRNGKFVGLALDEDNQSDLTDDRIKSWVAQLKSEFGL

We go through six variants from IntAct's records for PubMed 9753447.

The variants in the first experiment derive from B1. To be noted: with fer1_nosso petF.
For K206S, the “effect of a mutation on the interaction” value is “decreasing interaction”.
On the same count and under the same terms, to K206E belongs “decreasing interaction”; to K206Q, “decreasing interaction”.

The next experiment covers variants of B2. Conditions: with flav_nosso isiB.
Turning to K206Q, the “effect of a mutation on the interaction” value is “decreasing interaction”.
Regarding K206S, the “effect of a mutation on the interaction” value is “decreasing interaction”.
With K206E, the “effect of a mutation on the interaction” value is “decreasing interaction”.
